Measured values from patent US20250042994A1 (HAINAN SIMCERE ZAIMING PHARMACEUTICAL, published 2025).

How the values were obtained:
[1] = biological target: T1, human CD19 on Raji cells (human, UniProt P15391 20-556); experiment: FACS on Raji cells
T1 construct: whole, on cells
T1 sequence (looked up): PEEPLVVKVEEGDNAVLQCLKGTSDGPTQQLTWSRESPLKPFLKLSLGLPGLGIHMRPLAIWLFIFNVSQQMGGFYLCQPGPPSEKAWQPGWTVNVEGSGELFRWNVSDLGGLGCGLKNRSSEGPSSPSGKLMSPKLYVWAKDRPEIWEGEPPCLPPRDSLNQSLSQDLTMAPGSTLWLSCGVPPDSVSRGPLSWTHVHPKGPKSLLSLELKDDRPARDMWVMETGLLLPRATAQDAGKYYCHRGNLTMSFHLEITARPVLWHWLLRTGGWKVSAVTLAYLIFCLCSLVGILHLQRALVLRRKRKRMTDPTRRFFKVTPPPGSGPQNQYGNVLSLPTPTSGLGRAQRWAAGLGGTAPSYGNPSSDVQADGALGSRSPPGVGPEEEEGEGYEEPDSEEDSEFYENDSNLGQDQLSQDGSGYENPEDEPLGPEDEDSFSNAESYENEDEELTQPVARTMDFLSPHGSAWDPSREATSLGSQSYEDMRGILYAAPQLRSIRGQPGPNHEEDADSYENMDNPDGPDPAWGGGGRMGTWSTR

[2] = biological target: T2, monkey CD19 protein (monkey); experiment: ELISA on coated monkey CD19-His
T2 construct: also called monkey CD19-His protein
Description: (§1) Human CD19-his protein (purchased from ACROBiosystems, catalog number: CD9-H52H2) was diluted with PBS to a final concentration of 4 μg/mL, and then added to a 96-well ELISA plate at 100 μl/well. The plate was sealed with a plastic film and incubated overnight at 4° C., the plate was washed 2 times with PBS the next day, and then a blocking solution [PBS+2% (w/w) BSA] was added for blocking at room temperature for 2 h. The blocking solution was poured off, and 100 nM gradiently diluted CD19 chimeric antibody or control antibody was added at 50 μl/well. After incubation at 37° C. for 2 h, the plate was washed 3 times with PBS. […] TMB substrate was added at 50 μl/well, and incubated at room temperature for 10 min, and then a stop solution (1.0 N HCl) was added at 50 μl/well. The OD450 nm values were read by an ELISA microplate reader (Multimode Plate Reader, EnSight, purchased from Perkin Elmer).
(§2) In order to detect the species cross-binding activity of the chimeric antibodies, an ELISA plate was coated with commercial murine CD19 (ACROBiosystems, catalog number: 50510-M08H) and monkey CD19 (ACROBiosystems, catalog number: 90051-C08H), respectively, and the ELISA detection was performed according to the method in example 5.1.

[3] = biological target: T3, human CD19 on CHO-K1-human CD19 cells (human, UniProt P15391 20-556); experiment: FACS on CHO-K1-human CD19 cells
T3 construct: whole, on cells; also called CHO-K1-human CD19-2C8
T3 sequence (looked up): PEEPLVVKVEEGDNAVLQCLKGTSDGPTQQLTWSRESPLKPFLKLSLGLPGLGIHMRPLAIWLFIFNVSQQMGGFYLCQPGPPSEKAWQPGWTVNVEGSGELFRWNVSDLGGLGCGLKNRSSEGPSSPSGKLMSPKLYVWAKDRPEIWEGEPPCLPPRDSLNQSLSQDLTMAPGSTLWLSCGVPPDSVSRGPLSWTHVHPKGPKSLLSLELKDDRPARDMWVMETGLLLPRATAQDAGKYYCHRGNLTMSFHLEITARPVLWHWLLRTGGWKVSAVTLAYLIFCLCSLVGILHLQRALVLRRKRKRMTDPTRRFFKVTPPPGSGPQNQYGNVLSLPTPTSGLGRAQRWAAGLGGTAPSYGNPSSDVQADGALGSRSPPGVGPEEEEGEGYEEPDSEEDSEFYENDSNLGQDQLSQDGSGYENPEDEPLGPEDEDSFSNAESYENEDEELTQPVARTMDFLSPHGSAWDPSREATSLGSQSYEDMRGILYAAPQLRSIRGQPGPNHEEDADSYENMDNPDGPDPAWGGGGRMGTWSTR

[4] = biological target: T2, monkey CD19 protein; experiment: ELISA, coated monkey CD19 protein
Description: as §1, §2

[5] = biological target: T4, cynomolgus monkey CD19 on peripheral blood B cells (cynomolgus monkey (Macaca fascicularis), UniProt A0A2K5W8L9 20-557); experiment: FACS, cynomolgus PBMC, CD20+ B cells
T4 construct: whole, on cells; also called cynomolgus monkey B cells
T4 sequence: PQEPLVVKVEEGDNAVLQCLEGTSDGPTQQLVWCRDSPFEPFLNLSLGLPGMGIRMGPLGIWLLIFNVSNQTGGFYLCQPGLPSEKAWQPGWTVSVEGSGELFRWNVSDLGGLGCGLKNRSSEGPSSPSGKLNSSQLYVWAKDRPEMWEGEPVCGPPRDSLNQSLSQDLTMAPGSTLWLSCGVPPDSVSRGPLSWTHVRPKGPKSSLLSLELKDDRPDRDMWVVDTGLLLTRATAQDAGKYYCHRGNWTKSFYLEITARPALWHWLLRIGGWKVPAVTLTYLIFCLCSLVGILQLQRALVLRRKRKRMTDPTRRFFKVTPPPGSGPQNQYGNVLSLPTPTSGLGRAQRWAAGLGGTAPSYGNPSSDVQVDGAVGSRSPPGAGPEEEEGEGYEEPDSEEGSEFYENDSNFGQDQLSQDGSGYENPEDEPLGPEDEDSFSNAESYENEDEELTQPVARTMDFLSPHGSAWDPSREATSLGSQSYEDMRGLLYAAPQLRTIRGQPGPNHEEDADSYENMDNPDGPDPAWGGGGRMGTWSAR

[6] = biological target: T5, monkey CD19 on HEK293T-monkey CD19 cells (monkey); experiment: FACS on HEK293T-monkey CD19 cells
T5 construct: whole, on cells
Outline: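 Cells blocked in PBS + 2% (w/w) BSA at 2×10⁶ cells/ml, then incubated with test antibody on ice for 2 h. After washes, binding read by flow cytometry as mean fluorescence intensity (MFI). EC50 from fitted MFI curves. Parental HEK293T cells run by the same method.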

[7] = biological target: T4, cynomolgus monkey CD19 on peripheral …; experiment: FACS, cynomolgus monkey PBMC, 1 nM antibody, co-stained with CD20 antibody
Description: The monkey peripheral blood mononuclear cells were extracted from fresh cynomolgus monkey peripheral blood (purchased from Shanghai Medicilon Inc.) according to the instructions of Ficoll-Paque Plus (purchased from GE Healthcae, catalog number: 171440-02). After the cell suspension was centrifuged, the cells were resuspended in PBS containing 1% BSA, and then the cells were counted. […] The mixture was incubated for 1 h at room temperature. After washing the cells three times, APC-labeled secondary antibody anti-human IgG Fc (catalog number: 409306, purchased from Biolegend) was added. After incubation at room temperature in the dark for 30 minutes, the cells were washed 5 times, gently resuspended with PBS containing 1% BSA, and detected and analyzed by FACS (FACS Canto™, purchased from BD Company), in which CD20 was used as a marker of B cells to gate the CD20-positive B cell population, the proportion of the chimeric antibody-labeled positive cells was analyzed, and the proportion of the chimeric antibody positive cell population to B cell population was calculated after treatments with the chimeric antibodies at the concentrations of 100 nM, 10 nM and 1 nM, respectively.

B1: F3.118.14 (antibody, human IgG1, V domains shown)
VH: QVQLQQSGAELVRPGASVTLSCKASGYTFPDYEIHWVKQTPVHGLEWIGAIDPETGGIGYNQKFTGKAMLTADKSSSTAYMELRSLTSEDSAVYFCTRNYGSRWGQGSTLTVSS
VL: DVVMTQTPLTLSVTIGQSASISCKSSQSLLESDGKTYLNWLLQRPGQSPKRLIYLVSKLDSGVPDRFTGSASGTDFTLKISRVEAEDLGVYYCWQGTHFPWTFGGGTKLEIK
notes: human-murine chimeric antibody, human IgG1
How did the EC50 [1] turn out when B1 was run?
Its EC50 is 8.38 nM.

What about the “Maximum mean fluorescence intensity” value [1] of the same binder?
Its value is 25900.

And the “EC50 (read off the curve)” value [2]?
The value was about 0.2 nM.

What about the EC50 [3] of the same binder?
The EC50 was 18 nM.

And the “Maximum mean fluorescence intensity” value [3]?
Its value is 3380.

And the “OD450 at 0.0001 nM” value [4]?
The value was 0.07 OD450.

And the “OD450 at 0.001 nM” value [4]?
The value was 0.1 OD450.

What about the “OD450 at 0.01 nM” value [4] of the same binder?
The value was 0.24 OD450.

What about the “OD450 at 0.10 nM” value [4] of the same binder?
Its value is 1.11 OD450.

And the “OD450 at 1.00 nM” value [4]?
Its value is 2.05 OD450.

And the “OD450 at 10 nM” value [4]?
The value was 2.4 OD450.

What about the “OD450 at 100 nM” value [4] of the same binder?
The value was 2.75 OD450.

And the “Proportion of chimeric antibody positive cells to B cells (%) at 1 nM” value [5]?
The value was 6%.

And the “Proportion of chimeric antibody positive cells to B cells (%) at 10 nM” value [5]?
Its value is 25%.

And the “Proportion of chimeric antibody positive cells to B cells (%) at 100 nM” value [5]?
The value was 79%.

What about the EC50 [6] of the same binder?
Its EC50 is 9.64 nM.

What about the “Maximum mean fluorescence intensity” value [6] of the same binder?
The value was 156000.

B2: F4.58.6 (antibody, human IgG1, V domains shown)
VH: QVQLQQPGAELVKPGASVKLSCKASGYTFTSYWMHWVKQRPGQGLEWIGEIDPSDSYSNYNQKFKGKATLTVDKSSSTAYMQLSSLTSEDSAVYYCARSNYGSSYGYFDVWGAGTTVTVSS
VL: QIVLTQSPAIMSASPGEKVTMTCSVSSSLSYMHWYQQKPGTSPKRWIYDTSKLASGVPARFSGSGSGTSYSLTISSMEAEDAATYYCHQRSSYPTFGGGTKLEIK
notes: as for B1
Which results are given for B2?
EC50 [1]: 1.31 nM; Maximum mean fluorescence intensity [1]: 26100; ratio of chimeric antibody-labeled positive cells to CD20 positive cells [7]: 2%; EC50 [3]: 1.09 nM; Maximum mean fluorescence intensity [3]: 56700; Proportion of chimeric antibody positive cells to B cells (%) at 1 nM [5]: 1%; Proportion of chimeric antibody positive cells to B cells (%) at 10 nM [5]: 2%; Proportion of chimeric antibody positive cells to B cells (%) at 100 nM [5]: 4%; Maximum mean fluorescence intensity [6]: 81

B3: F3.124.7 (antibody, human IgG1, V domains shown)
VH: EVQLQQSGPVLVKPGASVKMSCKASGYTFTDYYMNWVKQRHGKSLEWIGISNPYNGGTSYNQKFKDKATLTVDKSSSTAYMELNSLTSEDSAVYYCAREGGTAQPTSGMDYWGQGTSVTVSS
VL: NIMMTQSPSSLAVSAGEKVTMSCKSSQSVLYSSNQKNYLAWYQQKPGQSPKLLIYWASTRESGVPDRFTGSGSGTDFTLTISSVQPEDPAVYYCHQYRSSYTFGGGTKLEIK
notes: as for B1
How did the EC50 [1] turn out when B3 was run?
Its EC50 is 2.46 nM.

And the “Maximum mean fluorescence intensity” value [1]?
Its value is 19100.

What about the “EC50 (read off the curve)” value [2] of the same binder?
The value was about 0.04 nM.

What about the EC50 [3] of the same binder?
The EC50 was 1.35 nM.

And the “Maximum mean fluorescence intensity” value [3]?
The value was 47500.

And the “OD450 at 0.0001 nM” value [4]?
Its value is 0.08 OD450.

And the “OD450 at 0.001 nM” value [4]?
Its value is 0.12 OD450.

And the “OD450 at 0.01 nM” value [4]?
The value was 0.41 OD450.

What about the “OD450 at 0.10 nM” value [4] of the same binder?
Its value is 1.44 OD450.

What about the “OD450 at 1.00 nM” value [4] of the same binder?
Its value is 1.93 OD450.

And the “OD450 at 10 nM” value [4]?
The value was 2.04 OD450.

What about the “OD450 at 100 nM” value [4] of the same binder?
Its value is 1.93 OD450.

What about the “Proportion of chimeric antibody positive cells to B cells (%) at 1 nM” value [5] of the same binder?
The value was 23%.

What about the “Proportion of chimeric antibody positive cells to B cells (%) at 10 nM” value [5] of the same binder?
The value was 65%.

What about the “Proportion of chimeric antibody positive cells to B cells (%) at 100 nM” value [5] of the same binder?
Its value is 92%.

What about the EC50 [6] of the same binder?
The EC50 was 1.27 nM.

What about the “Maximum mean fluorescence intensity” value [6] of the same binder?
The value was 112000.
